Target: BoNT/A receptor on mouse brain synaptosomes (mouse)

Substance: active BoNT/A toxin (Metabiologics, Inc.), unlabeled (from UniProt P0DPI1 2-1296)
- percent inhibition at 2.0 µg: 78%
